Measured values from paper PMC9206387, “LILRB2-mediated TREM2 signaling inhibition suppresses microglia functions” (Molecular Neurodegeneration, 2022).

Target: T1, oligomeric β-amyloid (1-42) (UniProt P05067 672-713)
T1 construct: the cut product β-amyloid (1-42) of the amyloid precursor protein; Oligomer; The methods of the direct BLI, reporter and BiFc assays name no label for oAβ; also called oAβ; Oligomer Aβ; source: bought: AnaSpec (lyophilized powder); HFIP-treated, dissolved in DMSO, oligomerised in DPBS at 37 °C overnight
Assay: BLI; protein A sensor-captured Fc fusion proteins, oAβ at multiple concentrations, 1:1 binding model, KD calculated as kdis/kon
Settings: both partners purified

Kd [nM]	koff [s⁻¹]	Binder
69.3	0.000593	LILRB2-Fc fusion protein (extracellular domain of LILRB2 fused to human IgG1 Fc) (Fc fusion, UniProt Q8N423 22-460, looked up, leukocyte immunoglobulin-like receptor subfamily B member 2 (LILRB2), extracellular domain (ECD) with four Ig-like domains; source: Expi 293 cells, purified (protein A agarose)) QTGTIPKPTLWAEPDSVITQGSPVTLSCQGSLEAQEYRLYREKKSASWITRIRPELVKNGQFHIPSITWEHTGRYGCQYYSRARWSELSDPLVLVMTGAYPKPTLSAQPSPVVTSGGRVTLQCESQVAFGGFILCKEGEDEHPQCLNSQPHARGSSRAIFSVGPVSPNRRWSHRCYGYDLNSPYVWSSPSDLLELLVPGVSKKPSLSVQPGPVMAPGESLTLQCVSDVGYDRFVLYKEGERDLRQLPGRQPQAGLSQANFTLGPVSRSYGGQYRCYGAHNLSSECSAPSDPLDILITGQIRGTPFISVQPGPTVASGENVTLLCQSWRQFHTFLLTKAGAADAPLRLRSIHEYPKYQAEFPMSPVTSAHAGTYRCYGSLNSDPYLLSHPSEPLELVVSGPSMGSSPPPTGPISTPGPEDQPLTPTGSDPQSGLGRHLGV
12.6	0.000123	TREM2-Fc fusion protein (extracellular domain of TREM2 fused to human IgG1 Fc) (Fc fusion, UniProt Q9NZC2 19-174, looked up, triggering receptor expressed on myeloid cells 2 (TREM2), extracellular domain (ECD); source: Expi 293 cells, purified (protein A agarose)) HNTTVFQGVAGQSLQVSCPYDSMKHWGRRKAWCRQLGEKGPCQRVVSTHNLWLLSFLRRWNGSTAITDDTLGGTLTITLRNLQPHDAGLYQCQSLHGSEADTLRKVLVEVLADPLDHRDAGDLWFPGESESFEDAHVEHSISRSLLEGEIPFPPTS
